In patent CN116724049A (UNIV KOELN; PHILIPPS UNIV T MARBURG, dated 2023):

B1: FnC1t2p1_D4 (antibody, V domains shown)
VH: QVQLVQSGSELKKPGASVKVSCKASGYTFLRFAMNWLRQAPGQGLEWMGWIDTNTGTPTYAQGFTGRFVFSLDTSVSTAYLQISSLKAEDTAVYYCARSLRGANLVPWGQGTLVTVSS
VL: DIQMTQSPSSLSASVGDRVTITCQASQDVSNYLNWYQQQPGKAPKLLIYDAFNLETGVPSRFSGSGSGTDFTFTISSLQPEDIATYYCQQYDNLPLTFGGGTKVEIK
B2: FnC1t2p1_G5 (antibody, V domains shown)
VH: QVQLVQSGSELKKPGASVKVSCKASGYTFLRFAMNWLRQAPGQGLEWMGWIDTNTGTPTYAQGFTGRFVFSLDTSVSTAYLQISSLKAEDTAVYYCARSLRGANLVPWGQGTLVTVSS
VL: DIQMTQSPSSLSASVGDRVTITCQASQDVSNYLNWYQQQPGKAPKLLIYDAFNLETGVPSRFSGSGSGTDFTFTISSLQPEDIATYYCQQYDNLPLTFGGGTKVEIK
B3: MnC2t1p1_A3 (antibody, V domains shown)
VH: EVQLVESGGGLVQPGGSLRLSCAASGFTVSSNYMSWVRQAPGRGLEWVSVIYSGGSTFYADSVKGRFTISRDNSKNTLYLQMNSLRPEDTAVYYCATGARFGESPFDYWGQGTLVTVSS
VL: DIQMTQSPSSVSASVGDRVTITCRASQGISSWLAWYQQKPGKAPKLLIYAASSLQSGVPSRFSGSGSGTDFTLTISSLQPEDFATYYCQQANSFPGTFGQGTKVEIK
B4: MnC2t2p1_C11 (antibody, V domains shown)
VH: QVQLVQSGAEVKKPGSSVKVSCKASGGTFSRYTIIWVRQAPGQGLEWMGRIIPILDIANYAQKFQGRVTITADKSTSTAYMELSSLRSEDTAVYYCAREGGLDYFGSRNSGWTYTWFDPWGQGTLVTVSS
VL: DIQMTQSPSSLSASVGDRVTITCRASQNISSYLNWYQQKPGKAPNLLIYAASSLQSGVPPRFSGSGSGTDFTLTISSLQPEDFATYYCQQSYSTLYSFGQGTKLEIK
B5: MnC4t2p1_B3 (antibody, V domains shown)
VH: EVQLVESGGHLVQPGRSLRLSCAASGFTFDDYAMHWVRQVPGKGLEWVSGISWNGGILDYADSVKGRFTISRDNAKNSLYLHMRSLRTDDTALYYCAKDLRRQDYYADWYFDLWGRGTLVTVSS
VL: DIQMIQSPSSVSASVGDRVTITCRASQGISSWLAWYQQKPGKAPKLLIYAASTLLSAVPSRFSGSGSGTDFTLTISSLQPEDFATYYCQQGNSFPFTFGPGTIVDV
B6: MnC4t2p2_A4 (antibody, V domains shown)
VH: QVQLVQSGSELKKPGASVKISCKASGYIFINYAMNWVRQAPGQGLEWMGWINTNTGNPTYAQDFTGRFVFSLDTSLSTAYLQISSLEAEDTAVYYCAKIGSRNSLGVWGQGTLVTVSA
VL: EIVLTQSPGTLSLSPGERATLSCRASHSVDRSYLAWYQQKPGLAPRLLIYGASSRATGIPDRFSGSGSGTDFTLTISRLEPEDFALYYCQHFGTSSVTFGRGTRLEIK

Biological target: SARS-CoV-2的刺突(S)蛋白的受体结合结构域(RBD) (SARS-CoV-2, UniProt P0DTC2 319-541)

In order of rising Kd:
1. B4  0.02 nM
2. B5  0.09 nM
3. B2  0.1 nM
4. B1  0.2 nM
5. B3  0.7 nM
6. B6  14 nM
